Assay results as given in PMC12948190, “Microfluidic Electrochemical Biosensor for the Detection of Platelet Factor 4 Antibody‐Mediated Thrombotic Disorders” (Advanced Science, 2025).

Target: the molecule itself
Assay: cross-linking + AUC; PF4 cross-linked with 1 mg/mL EDC (equal v:v) in 15 mM MES pH 8.0, 6 h, ambient temperature, stopped with 1 M Tris pH 7.4; oligomeric species analysed by SDS-PAGE and ultracentrifugation

B1: cross-linked platelet factor 4 (natural protein, human, UniProt P02776 32-101, looked up)
chain: EAEEDGDLQCLCVKTTSQVRPRHITSLEVIKAGPHCPTAQLIATLKNGRKICLDLQAPLYKKIIKKLLES
modifications: chemically cross-linked with 1-ethyl-3-(3-dimethylaminopropyl) carbodiimide (EDC); cross-linked residues not stated
notes: Platelet factor 4 (PF4, CXCL4), human, recombinant; The bought recombinant protein is probably the mature 70-residue chemokine (surmised); also called c-PF4; cross-linked PF4; source: bought: Protein Foundry LLC (recombinant PF4, Human CXCL4); cross-linked with EDC
stoichiometry N: 4
